Experiment [1] addresses T1, mCherry-tagged human VPS34 complex II (VPS34-CII), wild type (human, UniProt Q8NEB9 1-887; Q99570 1-1358; Q14457 1-450; Q9P2Y5 1-699).
T1 construct: human VPS34 (class III PI3K), full length, untagged; human VPS15, full length, with C-terminal 3xTEV-ZZ removed by TEV; human BECLIN1, full length; human UVRAG, full length, untagged; Held on RFP-trap beads by the mCherry on BECLIN1; also called mCherry-VPS34-CII; WT VPS34-CII; source: Expi293 cells, transfected; purified (IgG beads, TEV cleavage, S200 gel filtration); not shown: ZZ (protein A), …
Description: confocal microscopy bead-based binding assay; RFP-trap agarose beads coated with 2 µM mCherry-tagged VPS34 complex (or mCherry alone); AF488-labelled RAB protein added at varying concentrations; 20 mM HEPES pH 8.0, 100 mM NaCl, 0.5 mM TCEP; 30 min on ice; AF488 normalised by mCherry intensity; fit 'One site - specific binding'. As to conditions: both partners purified.

Experiment [2] has as its target T2, mCherry-tagged human VPS34-CII with VPS15 579-SHMIT-583>579-DDMIE-583 (human, UniProt Q8NEB9 1-887; Q99570 1-1358; Q14457 1-450; Q9P2Y5 1-699, S579D | H580D | T583E).
T2 construct: human VPS34, wild type; human VPS15, full length, S579D H580D T583E, with C-terminal 3xTEV-ZZ removed by TEV; human BECLIN1, full length; human UVRAG, full length, untagged; also called VPS34-CII VPS15 mutant; VPS15 mut; source: Expi293 cells, transfected; purified (IgG beads, TEV cleavage, S200 gel filtration); not shown: ZZ (protein A), C-terminal, cleaved; mCherry, N-terminal, kept; copies: + …
The description is as above. As to conditions: both partners purified.

The target of experiment [3] is T3, mCherry-tagged human VPS34-CII with VPS34 199-REIE-202>199-ERIR-202 (human, UniProt Q8NEB9 1-887; Q99570 1-1358; Q14457 1-450; Q9P2Y5 1-699, R199E | E200R | E202R).
T3 construct: human VPS34, full length, untagged, R199E E200R E202R; human VPS15, full length, with C-terminal 3xTEV-ZZ removed by TEV; human BECLIN1, full length; human UVRAG, full length, untagged; also called VPS34-CII REIE >ERIR; reverse charge mutant; source: Expi293 cells, transfected; purified (IgG beads, TEV cleavage, S200 gel filtration); not shown: ZZ (protein A), C-terminal, cleaved; mCherry, …
Described as above. The conditions noted are these: both partners purified.

The target of experiment [4] is T4, mCherry-tagged human VPS34-CII with VPS34 199-REIE-202>199-AAAA-202 (human, UniProt Q8NEB9 1-887; Q99570 1-1358; Q14457 1-450; Q9P2Y5 1-699, 199-REIE-202>199-AAAA-202).
T4 construct: human VPS34, full length, untagged, REIE to AAAA in C2 HH helix 2; human VPS15, full length, with C-terminal 3xTEV-ZZ removed by TEV; human BECLIN1, full length; human UVRAG, full length, untagged; also called VPS34-CII REIE >AAAA; source: Expi293 cells, transfected; purified (IgG beads, TEV cleavage, S200 gel filtration); not shown: ZZ (protein A), C-terminal, cleaved; mCherry, N-terminal, kept; …
Described as above. As to conditions: both partners purified.

In experiment [5] the target is mCherry-tagged human VPS34-CII with VPS34 199-REIE-202>199-AAAA-202 (human, UniProt Q8NEB9 1-887; Q99570 1-1358; Q14457 1-450; Q9P2Y5 1-699, 199-REIE-202>199-AAAA-202).
Experiment [6] deals with T2, mCherry-tagged human VPS34-CII with …. Description: cell-based or functional assay.
The target in experiment [7] is human VPS34-CII with VPS34 199-REIE-202>199-ERIR-202, untagged (human, UniProt Q8NEB9 1-887; Q99570 1-1358; Q14457 1-450; Q9P2Y5 1-699, R199E | E200R | E202R). Description: cell-based or functional assay.
Experiment [8] concerns the target T5, mCherry-tagged human VPS34 complex II with VPS34 199-REIE-202>AAAA (human, UniProt Q8NEB9 1-887; Q99570 1-1358; Q14457 1-450; Q9P2Y5 1-699, 199-REIE-202>199-AAAA-202).
T5 construct: VPS34 (PIK3C3), human, full length, untagged, 199-REIE-202 changed to AAAA; VPS15, human, full length; BECLIN1, human, full length; UVRAG, human, full length, untagged; also called VPS34-CII REIE >AAAA; CII-AAAA; source: Expi293 cells, transfected, purified (IgG beads, TEV cleavage, gel filtration); not shown: ZZ, C-terminal, cleaved; mCherry, N-terminal, kept; copies: + + +
Description: confocal microscopy bead-based binding assay; mCherry-tagged VPS34 complex (2 µM) held on RFP-trap agarose beads, AF488-labelled RAB5A added at varying concentrations; 20 mM HEPES pH 8.0, 100 mM NaCl, 0.5 mM TCEP; 30 min on ice; AF488 intensity normalised by mCherry intensity; GraphPad Prism fit 'One site - specific binding'; fit of the representative experiment. As to conditions: both partners purified.

Experiment [9] has as its target T6, mCherry-tagged human VPS34 complex II with VPS34 199-REIE-202>ERIR (human, UniProt Q8NEB9 1-887; Q99570 1-1358; Q14457 1-450; Q9P2Y5 1-699, R199E | E200R | E202R).
T6 construct: VPS34 (PIK3C3), human, full length, untagged, R199E E200R E202R (199-REIE-202 to ERIR); VPS15, human, full length; BECLIN1, human, full length; UVRAG, human, full length, untagged; also called VPS34-CII REIE >ERIR; CII-ERIR; source: Expi293 cells, transfected, purified (IgG beads, TEV cleavage, gel filtration); not shown: ZZ, C-terminal, cleaved; mCherry, N-terminal, kept; copies: + + +
Described as above. As to conditions: both partners purified.

Experiment [10] addresses T7, mCherry-tagged human VPS34 complex II, wild type (VPS34, VPS15, mCherry-BECLIN1, UVRAG) (human, UniProt Q8NEB9 1-887; Q99570 1-1358; Q14457 1-450; Q9P2Y5 1-699).
T7 construct: VPS34 (PIK3C3), human, full length, untagged; VPS15, human, full length; BECLIN1, human, full length; UVRAG, human, full length, untagged; Held on RFP-trap beads by the mCherry on BECLIN1; also called VPS34-CII; WT VPS34-CII; source: Expi293 cells, transfected, purified (IgG beads, TEV cleavage, gel filtration); not shown: ZZ, C-terminal, cleaved; mCherry, N-terminal, kept; copies: + + +
Described as above. As to conditions: both partners purified.

The target in experiment [11] is T8, mCherry-tagged human VPS34 complex II with VPS15 579-SHMIT-583>DDMIE (human, UniProt Q8NEB9 1-887; Q99570 1-1358; Q14457 1-450; Q9P2Y5 1-699, S579D | H580D | T583E).
T8 construct: VPS34 (PIK3C3), human, wild type; BECLIN1, human, full length; UVRAG, human, full length, untagged; also called VPS34-CII VPS15 mutant; CII-DDMIE; source: Expi293 cells, transfected, purified (IgG beads, TEV cleavage, gel filtration); not shown: ZZ, C-terminal, cleaved; mCherry, N-terminal, kept; copies: + + +
Described as above. The conditions noted are these: both partners purified.

The target of experiment [12] is mCherry-tagged yeast VPS34-CII (ScVPS34-CII), wild type (S. cerevisiae, UniProt P22543 1-875; P22219 1-1454; Q02948 1-557; Q05919 1-439).
Target sequence in this assay (P22543 whole entry, chain 1 of 4): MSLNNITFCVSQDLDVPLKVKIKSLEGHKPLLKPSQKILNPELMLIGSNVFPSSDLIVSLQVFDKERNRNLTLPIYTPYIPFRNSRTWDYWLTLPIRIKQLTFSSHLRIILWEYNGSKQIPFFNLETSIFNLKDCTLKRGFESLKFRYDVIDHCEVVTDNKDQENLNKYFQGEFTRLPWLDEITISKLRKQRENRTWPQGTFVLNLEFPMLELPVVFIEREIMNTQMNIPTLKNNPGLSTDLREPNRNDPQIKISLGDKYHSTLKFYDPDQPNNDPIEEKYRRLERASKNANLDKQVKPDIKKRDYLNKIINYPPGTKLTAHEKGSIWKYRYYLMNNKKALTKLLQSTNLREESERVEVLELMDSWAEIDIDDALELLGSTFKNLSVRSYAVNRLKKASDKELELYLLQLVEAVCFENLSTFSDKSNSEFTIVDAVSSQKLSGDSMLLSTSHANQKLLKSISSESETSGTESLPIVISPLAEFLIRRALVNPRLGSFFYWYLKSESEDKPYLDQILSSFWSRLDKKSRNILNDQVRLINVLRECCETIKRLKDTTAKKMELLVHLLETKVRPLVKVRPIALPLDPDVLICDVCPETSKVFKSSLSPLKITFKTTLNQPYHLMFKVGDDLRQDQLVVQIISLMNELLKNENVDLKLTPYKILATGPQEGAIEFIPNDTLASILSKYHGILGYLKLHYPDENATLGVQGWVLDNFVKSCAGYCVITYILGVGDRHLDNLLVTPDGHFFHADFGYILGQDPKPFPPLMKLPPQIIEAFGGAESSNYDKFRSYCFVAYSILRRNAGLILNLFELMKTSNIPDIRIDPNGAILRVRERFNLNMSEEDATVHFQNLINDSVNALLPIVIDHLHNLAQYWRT
Target sequence in this assay (P22219 whole entry, chain 2 of 4): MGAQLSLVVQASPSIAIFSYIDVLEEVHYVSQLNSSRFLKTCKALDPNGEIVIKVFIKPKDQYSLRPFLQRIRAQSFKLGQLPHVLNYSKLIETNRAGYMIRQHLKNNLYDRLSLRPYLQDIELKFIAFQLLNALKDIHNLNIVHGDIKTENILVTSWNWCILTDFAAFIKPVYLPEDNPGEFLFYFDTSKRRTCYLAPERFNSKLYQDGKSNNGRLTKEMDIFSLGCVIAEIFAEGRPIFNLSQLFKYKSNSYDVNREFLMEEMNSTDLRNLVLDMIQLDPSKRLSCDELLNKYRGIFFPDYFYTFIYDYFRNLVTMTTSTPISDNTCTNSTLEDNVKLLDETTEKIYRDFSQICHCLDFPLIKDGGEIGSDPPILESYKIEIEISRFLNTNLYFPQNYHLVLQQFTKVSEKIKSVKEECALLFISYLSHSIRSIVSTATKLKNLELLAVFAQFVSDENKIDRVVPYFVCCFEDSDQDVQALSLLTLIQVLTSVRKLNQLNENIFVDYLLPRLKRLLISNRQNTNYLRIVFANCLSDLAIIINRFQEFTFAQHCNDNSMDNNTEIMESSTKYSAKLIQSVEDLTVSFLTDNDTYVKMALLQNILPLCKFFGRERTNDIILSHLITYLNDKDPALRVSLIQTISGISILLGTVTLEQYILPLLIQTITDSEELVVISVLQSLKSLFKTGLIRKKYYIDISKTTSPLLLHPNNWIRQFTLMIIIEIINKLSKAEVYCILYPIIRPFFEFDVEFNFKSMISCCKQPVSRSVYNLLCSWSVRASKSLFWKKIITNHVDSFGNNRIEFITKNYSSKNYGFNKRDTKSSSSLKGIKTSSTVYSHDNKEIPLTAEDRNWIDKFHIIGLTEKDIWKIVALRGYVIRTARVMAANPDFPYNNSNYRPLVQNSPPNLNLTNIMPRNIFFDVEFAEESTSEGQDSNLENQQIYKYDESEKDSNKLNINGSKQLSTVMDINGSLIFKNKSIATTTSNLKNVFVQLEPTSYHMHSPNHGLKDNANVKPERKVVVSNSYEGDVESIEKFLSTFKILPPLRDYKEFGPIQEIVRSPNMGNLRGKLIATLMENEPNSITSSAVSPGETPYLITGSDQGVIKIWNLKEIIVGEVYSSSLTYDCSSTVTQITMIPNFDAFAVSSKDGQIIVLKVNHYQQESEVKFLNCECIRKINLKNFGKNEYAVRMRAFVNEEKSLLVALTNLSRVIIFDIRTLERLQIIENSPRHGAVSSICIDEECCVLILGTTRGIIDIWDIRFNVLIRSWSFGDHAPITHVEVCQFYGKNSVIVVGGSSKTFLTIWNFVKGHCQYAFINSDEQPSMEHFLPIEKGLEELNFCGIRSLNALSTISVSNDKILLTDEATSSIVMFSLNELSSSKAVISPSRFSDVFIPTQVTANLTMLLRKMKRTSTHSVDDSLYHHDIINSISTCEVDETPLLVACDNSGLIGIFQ
Target sequence in this assay (Q02948 whole entry, chain 3 of 4): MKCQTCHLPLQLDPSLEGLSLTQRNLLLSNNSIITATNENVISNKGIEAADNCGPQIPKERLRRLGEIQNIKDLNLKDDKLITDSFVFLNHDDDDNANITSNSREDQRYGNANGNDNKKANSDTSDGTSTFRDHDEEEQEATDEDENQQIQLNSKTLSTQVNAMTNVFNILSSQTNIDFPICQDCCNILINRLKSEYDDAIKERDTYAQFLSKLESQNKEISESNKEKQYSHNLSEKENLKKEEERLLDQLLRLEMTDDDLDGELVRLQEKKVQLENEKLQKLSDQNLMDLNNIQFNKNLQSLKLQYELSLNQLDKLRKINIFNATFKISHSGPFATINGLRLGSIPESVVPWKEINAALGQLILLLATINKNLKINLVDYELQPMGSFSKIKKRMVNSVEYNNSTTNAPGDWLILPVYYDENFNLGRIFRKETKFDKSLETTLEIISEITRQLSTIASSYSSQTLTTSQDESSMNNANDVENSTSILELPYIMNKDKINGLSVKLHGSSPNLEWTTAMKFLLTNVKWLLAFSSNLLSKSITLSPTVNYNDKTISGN
Target sequence in this assay (Q05919 whole entry, chain 4 of 4): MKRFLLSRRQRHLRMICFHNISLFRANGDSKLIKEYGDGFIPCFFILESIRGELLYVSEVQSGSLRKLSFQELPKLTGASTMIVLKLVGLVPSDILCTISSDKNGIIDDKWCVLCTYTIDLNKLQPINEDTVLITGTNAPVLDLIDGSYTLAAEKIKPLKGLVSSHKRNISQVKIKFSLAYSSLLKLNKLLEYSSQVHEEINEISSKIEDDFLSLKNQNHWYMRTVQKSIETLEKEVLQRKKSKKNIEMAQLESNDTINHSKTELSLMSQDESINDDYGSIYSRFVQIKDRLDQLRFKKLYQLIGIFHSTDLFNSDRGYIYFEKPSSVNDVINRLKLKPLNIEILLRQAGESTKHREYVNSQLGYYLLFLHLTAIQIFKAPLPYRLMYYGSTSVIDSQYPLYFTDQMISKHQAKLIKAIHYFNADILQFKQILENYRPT
Experiment [13] has as its target T9, mCherry-tagged yeast VPS34-CII (ScVPS34-CII), wild type (S. cerevisiae, UniProt P22543 1-875; P22219 1-1454; Q02948 1-557; Q05919 1-439).
T9 construct: S. cerevisiae Vps34; S. cerevisiae Vps15; S. cerevisiae Vps30, named as a common subunit of the yeast complexes; S. cerevisiae Vps38, named as the unique subunit of yeast complex II; also called WT ScVPS34-CII; yeast complex II; source: S. cerevisiae YOY193, galactose-induced; purified (IgG beads, TEV cleavage, Superdex 200); copies: + + +
The experiment can be described thus: confocal microscopy bead-based binding assay; RFP-trap beads coated with mCherry-tagged yeast VPS34-CII; Vps21 Q66L-EGFP added at increasing concentrations. The conditions noted are these: both partners purified.
T9 sequence (P22543 whole entry, chain 1 of 4): as the sequence (P22543 whole entry, chain 1 of 4) above
T9 sequence (P22219 whole entry, chain 2 of 4): as the sequence (P22219 whole entry, chain 2 of 4) above
T9 sequence (Q02948 whole entry, chain 3 of 4): as the sequence (Q02948 whole entry, chain 3 of 4) above
T9 sequence (Q05919 whole entry, chain 4 of 4): as the sequence (Q05919 whole entry, chain 4 of 4) above

Several values for one entry are separate records, joined by “and”; a condition that tells them apart may be missing. Equal values may be shown once.

B1: AF488-labelled human RAB5A Q79L C19S C63S, 1-212 (natural protein, UniProt P20339 1-212, looked up)
chain: MASRGATRPNGPNTGNKISQFKLVLLGESAVGKSSLVLRFVKGQFHEFQESTIGAAFLTQTVSLDDTTVKFEIWDTAGLERYHSLAPMYYRGAQAAIVVYDITNEESFARAKNWVKELQRQASPNIVIALSGNKADLANKRAVDFQEAQSYADDNSLLFMETSAKTSMNVNEIFMAIAKKLPKNEPQNPGANSARGRGVDLTEPTQPTRNQC
modifications: AlexaFluor 488 C5 maleimide label (43% labelling efficiency)
notes: human RAB5A residues 1-212, Q79L C19S C63S; The methods say that RAB5A was loaded with GTP or GDP; also called RAB5A-AF488; RAB5-AF488
Take B1: the Kd in [1] stood at 7.4 µM; in experiment [2], 6 µM; in experiment [3], 27 µM; in experiment [5], 2.6 µM. Also, the “fold tighter binding than the WT complex” value in experiment [4] is roughly 3 fold.

B2: human RAB5A-GTP 1-212 (C19S, C63S, Q79L), unlabelled (natural protein, UniProt P20339 1-212, looked up)
chain: B1 chain
With B2, the “GUV-based kinase assay: activation of VPS34-CII by membrane-tethered RAB5A (initial rates, AF647-PX signal)” value in experiment [6] was roughly 2 fold; in experiment [7], 2 fold.

B3: HsRAB5A Q79L C19S,C63S, 1-212, AF488-labelled (natural protein, human, UniProt P20339 1-212, looked up)
chain: B1 chain
modifications: AlexaFluor 488 C5 maleimide label (43% labelling efficiency)
notes: RAB5A, human, residues 1-212, with Q79L, C19S and C63S; Loaded with GTP or GDP before gel filtration; also called RAB5A-AF488; AF488-RAB5A; source: E. coli OverExpress C41(DE3), purified (HisTrap, ULP1 cleavage, gel filtration)
Turning to B3, the Kd is 3.21 µM and 4.24 µM in experiment [8]; 22.1 µM in experiment [9]; 6.27 µM in [10]; 6.04 µM in experiment [11].

B4: S. cerevisiae Vps21 Q66L, 1-207, EGFP fusion (natural protein, UniProt P36017 1-207, looked up)
chain: MNTSVTSIKLVLLGEAAVGKSSIVLRFVSNDFAENKEPTIGAAFLTQRVTINEHTVKFEIWDTAGLERFASLAPMYYRNAQAALVVYDVTKPQSFIKARHWVKELHEQASKDIIIALVGNKIDMLQEGGERKVAREEGEKLAEEKGLLFFETSAKTGENVNDVFLGIGEKIPLKTAEEQNSASNERESNNQRVDLNAANDGTSANSA
notes: S. cerevisiae Vps21 residues 1-207, Q66L (GTP-locked); Backbone pOPTH; also called Vps21 Q66L-EGFP; yeast RAB5 orthologue; source: E. coli OverExpress C41(DE3), purified (Ni-NTA, Q column, S75 gel filtration), GTP-loaded; not shown: EGFP, C-terminal, kept
The molecule B4 displayed a Kd in experiment [12] of 6 µM. Also, in [13], the binding result is listed as “binds”.

The values are drawn from paper PMC13218723, “A novel RAB5 binding site in human VPS34-CII that is likely the primordial site in eukaryotic evolution” (eLife, 2026).
